The record followed here is US6114143, “Anti-HIV monoclonal antibody” (Juridical Foundation The Chemo-Sero-Therapeutic Research …, dated 2000).

One assay has as its target gp120 of HIV-MN strain (HIV strain MN, UniProt P05877). Briefly: cell-based or functional assay.
The target in assay [1] is T1, synthetic PND peptide SP-1 (HIV strain MN) (HIV strain MN).
T1 peptide: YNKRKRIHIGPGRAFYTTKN
Description: EIA, peptide immobilized on plate (FIG. 4).

Assay [2] concerns the target synthetic PND peptide SP-6 (HIV strain NI16-1) (HIV strain NI16-1). Description: EIA, peptide immobilized on plate (FIG. 4).
For assay [3], the target named is synthetic PND peptide SP-9 (HIV strain NI23) (HIV strain NI23). Description: EIA, peptide immobilized on plate (FIG. 4).
The target of assay [4] is synthetic PND peptide SP-11 (HIV strain NI54-2) (HIV strain NI54-2). Description: EIA, peptide immobilized on plate (FIG. 4).
The target of assay [5] is synthetic PND peptide SP-12 (HIV strain NI53) (HIV strain NI53). Briefly: EIA, peptide immobilized on plate (FIG. 4).
Assay [6] addresses synthetic PND peptide SP-20 (HIV strain NI63-2) (HIV strain NI63-2). Description: EIA, peptide immobilized on plate (FIG. 4).
Assay [7] has as its target synthetic peptide SP-30 (5 repeats of GPGR). Briefly: EIA, peptide immobilized on plate (FIG. 4).
For assay [8], the target named is T2, hexapeptide Ile-Gly-Pro-Gly-Arg-Ala (HIV strain MN).
T2 peptide: IGPGRA
Description: EIA with overlapped peptides on a solid phase (FIG. 7).

For assay [9], the target named is T3, hexapeptide Gly-Pro-Gly-Arg-Ala-Phe (HIV strain MN).
T3 peptide: GPGRAF
The description is as above.

The target of assay [10] is T4, decapeptide IHIGPGRAFY derived from HIV-MN (HIV strain MN).
T4 peptide: IHIGPGRAFY
Description: EIA, peptide synthesized on a polyethylene rod (FIG. 6).

The target in assay [11] is decapeptide […] derived from NI53 (HIV strain NI53). The assay is described as above.

B1: monoclonal antibody C25 (antibody, V domains shown)
VH: QVQLQQSGAELVRPGTSVKMFCKAAGYTFTNSWIGWFRQRPGHGLEWIGDIYPGGGYTNYNEIFKGKATLTADTSSSTAYMQLSSLTSEDSAIYYCSRGIPGYAMDYWGQGTSVTVSS
VL: DIVMTQSPSSLTVTAGEKVTMSCKSSQSLLNSGDQKNYLTWYQQKPGQPPKLLIYWASTGESGVPDRFTGSGSETDFTLTISSVQAEDLAVYYCQNDYSYPWTFGGGTKLEIK
In the case of B1, the “minimum effective concentration inhibiting viral infection by 100%” value with gp120 of HIV-MN strain was 1 µg/mL. In addition, the binding result in assay [1], in assay [2], in [3], in assay [4], in assay [5] and in [6] was “binds” throughout. The binding result in assay [7], in [8], in [9], in assay [10] and in [11] was “binds” throughout.

B2: chimeric C25 antibody (CC25) (antibody, V domains shown)
VH: B1 VH
VL: B1 VL
Regarding B2, the “minimum effective concentration inhibiting viral infection by 100%” value with gp120 of HIV-MN strain amounted to 1 µg/mL.

B3: humanized C25 antibody (RC25) (antibody, V domains shown)
VH: QVQLVQSGAEVKKPGASVKVSCKASGYTFTNSWIGWFRQAPGQGLEWIGDIYPGGGYTNYNEIFKGKATMTADTSTNTAYMELSSLRSEDTAVYYCSRGIPGYAMDYWGQGTLVTVSS
VL: DIQMTQSPSSLSASVGDRVTMSCKSSQSLLNSGDQKNYLTWYQQKPGKAPKLLIYWASTGESGVPSRFSGSGSGTDFTFTISSLQPEDIATYYCQNDYSYPWTFGQGTKVEIK
For B3, the “minimum effective concentration inhibiting viral infection by 100%” value in the assay with gp120 of HIV-MN strain worked out at 1 µg/mL.
